Experimental data: article PMC2776984 (PLoS Genetics, 2009)
Values belong to the molecule of their own block, whether it stands above or below them.

B1: BMPR1Becd (soluble ectodomain of rhBMPR1B) (receptor, human, UniProt O00238 14-126, looked up)
chain: KKEDGESTAPTPRPKVLRCKCHHHCPEDSVNNICSTDGYCFTMIEEDDSGLPVVTSGCLGLEGSDFQCRDTPIPHQRRSIECCTERNECNKDLHPTLPPLKNRDFVDGPIHHR
notes: BMPR1B, BMP type I receptor, human (rh), extracellular domain; also called BMPR1B ectodomain
B2: rhGDF5 (recombinant human Growth & Differentiation Factor 5) (ligand)
chain: RQGKRPSKNLKARCSRKALHVNFKDMGWDDWIIAPLEYEAFHCEGLCEFPLRSHLEPTNHAVIQTLMNSMDPESTPPTCCVPTRLSPISILFIDSANNVVYKQYEDMVVESCGCR
notes: GDF5 (CDMP1), human, recombinant; also called CDMP1; wild-type GDF5; source: bought/supplied: Biopharm GmbH

Experiments:
Assay in all cases: SPR; BIA2000 system (Biacore); receptor ectodomains immobilised, GDF5 proteins as analyte; apparent KD; n = 6; as described in ref. 16
[1] = target: BMPR1Becd (soluble ectodomain of rhBMPR1B) (human) (UniProt O00238)
[2] = target: BMPR1Aecd (soluble ectodomain of rhBMPR1A) (human) (UniProt P36894)
[3] = target: B2; details: both partners purified
[4] = target: T1, BMPR1Aecd (soluble ectodomain of rhBMPR1A) (human, UniProt P36894 24-152); details: both partners purified
T1 construct: BMPR1A, BMP type I receptor, human (rh), extracellular domain; also called BMPR1A ectodomain
T1 sequence (P36894 24-152): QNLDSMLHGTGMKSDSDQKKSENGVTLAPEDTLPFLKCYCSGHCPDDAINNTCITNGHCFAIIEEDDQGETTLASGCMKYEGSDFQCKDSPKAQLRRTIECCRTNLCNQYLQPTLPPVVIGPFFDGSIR

BMPR1Aecd (soluble ectodomain of rhBMPR1A) (human), sequence (P36894 24-152): as above

Kd [1]: 1.2 nM
Kd [2]: 19.5 nM
Molecule: rhN445T GDF5 (from UniProt P43026 28-501) (ligand)

Molecule: B1
Kd [3]: 1.1 ± 0.2 nM

Molecule: B2
Kd [4]: 17 ± 4.6 nM
